Assays:
[1] = target: T1, CH3 Y407A cavity mutant (human, UniProt P01857-1 224-330 = IgG part, Y407A); assay: calorimetry of a mixture of purified CH3 domains
T1 construct: domain: CH3; Isolated CH3 domain secreted from E. coli; Positions follow Eu numbering; also called designed cavity mutant

[2] = target: T2, CH3 T366S:L368A:Y407V cavity mutant (human, UniProt P01857-1 224-330 = IgG part, T366S; L368A; Y407V); assay: calorimetry of a 1:1 mixture of purified CH3 domains
T2 construct: domain: CH3; Isolated CH3 domain secreted from E. coli; Positions follow Eu numbering; also called phage-selected cavity mutant

B1: CH3 T366W protuberance mutant (other, human, UniProt P01857-1 224-330, looked up, name in EU numbering)
chain: GQPREPQVYTLPPSRDELTKNQVSLWCLVKGFYPSDIAVEWESNGQPENNYKTTPPVLDSDGSFFLYSKLTVDKSRWQQGNVFSCSVMHEALHNHYTQKSLSLSPGK
notes: domain: CH3; Isolated CH3 domain secreted from E. coli (plasmid pAK19); Positions follow Eu numbering, not the UniProt entry
Question: Does B1 bind [1]?
Answer: binds

Question: Does B1 bind [2]?
Answer: binds

From US20070184523A1 (Genentech, published 2007)
